Experimental data: the supplement of paper PMC9170038

Tested on: MS2 coat protein
Experiment: apparent KD of MS2 coat protein; designed switch direction (-1 OFF switch, 1 ON switch): -1; higher = weaker reporter binding
In short: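 The apparent KD reported per design is the median over clusters of curve fits to normalised cluster fluorescence. The RNA switches were transcribed on Illumina chips by stalled E. coli RNA polymerase. SNAP-549-labelled MS2 coat protein was titrated from 0.7 or 1.5 nM, doubling up to 3 µM, in Tris-HCl pH 7.5 buffer containing KCl, MgCl2, BSA, DTT, tRNA and Tween-20, with no input, 200 uM small-molecule ligand, or an oligonucleotide input.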

[1] = input ligand: microRNA oligo, concentration not stated
[2] = Eterna round: R95, input ligand: microRNA oligo, concentration not stated
[3] = Eterna round: R95, input ligand: FMN 200 uM
[4] = Eterna round: R95, input ligand: none

Sequence | apparent KD of MS2 coat protein [1] | apparent KD of MS2 coat protein [2] | apparent KD of MS2 coat protein (input ligand: FMN 200 uM) | apparent KD of MS2 coat protein (input ligand: none) | apparent KD of MS2 coat protein [3] | apparent KD of MS2 coat protein [4]
AUCAGCUCGUCAGGAUAUACAUGAUAGAUCGAUUAAUUAAUUAAUUUAACAUGAGGAUCACCCAUGUAGAAGGGACGAGCUGAU [ENG2/1-B3] (Eterna round: R96, puzzle: Exclusion NG 2) | 0.0393 µM | – | – | – | – | –
ACUAGAUGAGGAUAUGCAUAUUUUCGUGUUCUUCUAGAUUAACAUGAGGAUCACCCAUGUAGAAGGCGUCAUUA [Exclusion 2 - 17] (puzzle: Exclusion 2) | – | 0.0166 µM | – | – | – | –
CAGUACUGAGGAUAUACAUGAGGAUCACCCAUGUCCUAAAAGUAGGAUACUACUAUUAGUAGAAGGCAGUACUG [Fiskers Ex 3 828 mod 23] (puzzle: Exclusion 3) | – | 0.0181 µM | – | – | – | –
UGUUAUAGAGGAUAUGCGUGAAUAUAGAUUCAUGGAAAUUUACAUGAGGAUCACCCAUGUAGAAGGCUGUGUUU [LRO-Excl2-17-mod 090 by JR] (Eterna round: R97, puzzle: Exclusion 2) | – | – | 0.0146 µM | 0.0156 µM | – | –
AAGUACCGUCACGAUAGUGAUGGUACAACAAGUAAAUGUACAUGAGGAUCACCCAUGUCCUCUUUUGCUCGUCUUAU [Sensor 3 - 91] (puzzle: Sensor v3, turn-off variant 2) | – | 0.033 µM | – | – | 0.144 µM | 0.166 µM
CCGGAUAUGCAGGAUAUCGUAUCGGAGACGAUACGAGAAGGGUAUACAUGAGGAUCACCCAUGUGUCCUACCGG [Mat - Exclusion 6 - Eli Mod - D84] (puzzle: Exclusion 6) | – | 0.0222 µM | – | – | – | –
ACUCGUGCCCGAGGAUAUUACAGCAACCUGGCUUAAGAAGGCGGGACAUGAGGAUCACCCAUGUUCUGCGCAUCGGUCGUCAGA [Anzatete] (Eterna round: R96, puzzle: Exclusion NG 1) | 0.00936 µM | – | 0.0188 µM | 0.013 µM | – | –
UAAUUAAUUAAUUAAUAAUACAUGAGGAUCACCCAUGUAGAUCCUACAUACAAGCUAAGUAGCUCGUCUUAUAAUUA [Stov1/2-A1] (Eterna round: R97, puzzle: Sensor, turn-off variant 1) | – | – | 0.364 µM | 0.353 µM | – | –
AGUCGGUCAGGAUAUGCAAUCGUGGACAUGAGGAUCACCCAUGUAACGUGGGCCUGGUUUGUAGAAGGGACGAGCA [EX5 #87] (Eterna round: R97, puzzle: Exclusion 5) | – | – | 0.066 µM | 0.0612 µM | – | –
AUUAAUCAGCAGGAUAUAAGUAUCUGAUGGUGGUUAGAAGGGCUGACAUGAGGAUCACCCAUGUGCUCUUCGUG [Beusbi] (puzzle: Exclusion 6) | – | 0.0111 µM | – | – | – | –
AAAGAACAUGAGGAUCACCCAUGUAAGGAUAUGCAAAGAAAGAAAGAAGAAAGAGAAAGCAGAAGGUACAAGAA [JR_Exclu1_Sub071] (puzzle: Exclusion 1) | – | 0.0441 µM | – | – | 0.0344 µM | 0.0368 µM
AGUUACUACAAGCUUUGGGACAUGAGGAUCACCCAUGUUCGUCUUAUUGUAGUAGGUACGCUGACGUACCUACUACA [Mat - Sensor v3 - turn-off var 1 - JL Mod - D7] (puzzle: Sensor v3, turn-off variant 1) | – | 0.0396 µM | – | – | 0.0148 µM | 0.0138 µM
AAAUCUGAGGAGGAUAUGGUAUAGGAAAUGGUGCCAGAAGGUUUCACAUGAGGAUCACCCAUGUCAAAUAGUGA [EX6 #63] (Eterna round: R97, puzzle: Exclusion 6) | – | – | 0.0457 µM | 0.0525 µM | – | –
AUAAUUAGUUCAGGAUAUCAGCACGUGUAGUGCUGAGAAGGGAACAUGAGGAUCACCCAUGUGAUCAAUAUUAUAAUUUUAAUU [ENG1/12-B3] (Eterna round: R96, puzzle: Exclusion NG 1) | 0.925 µM | – | 0.42 µM | 1.19 µM | – | –
UAGUUGCUCAGGGAGUGUGACAUGAGGAUCACCCAUGUGGUGGUAGGGAACAAGCUUUUUGCACGUACUUAUGAGUU [JR_SV3TOV1_Sub008] (puzzle: Sensor v3, turn-off variant 1) | – | 0.0425 µM | – | – | 0.15 µM | 0.184 µM
CAGUACUGAGGAUAUACAUGAGGAUCACCCAUGUUAGAGAUACUAGUGAGGUCGAUUAGUAGAAGGCAGUACUG [Mat X3R4 m24] (Eterna round: R97, puzzle: Exclusion 3) | – | – | 0.557 µM | 0.0449 µM | – | –
AAUUAUAGAGGAUAUACAGAUUAAUACAUGAGGAUCACCCAUGUUCUUCAAUGUAUAUAUGUAGAAGGCUAAGGAA [JR_Ex5_Sub091] (Eterna round: R97, puzzle: Exclusion 5) | – | – | 0.181 µM | 0.238 µM | – | –
UCACGGGACUAAGGAUAUAUGUGUACCAUUUUCAUAGAAGGUAGAAUGUUUGAUCAUAAACUAAACAUGAGGAUCACCCAUGUU [JR_ExcNG1_Sub091] (Eterna round: R96, puzzle: Exclusion NG 1) | 0.0206 µM | – | – | – | – | –

Sequence | apparent KD of MS2 coat protein [1] | apparent KD of MS2 coat protein [2] | apparent KD of MS2 coat protein (input ligand: FMN 200 uM) | apparent KD of MS2 coat protein (input ligand: none) | apparent KD of MS2 coat protein [3] | apparent KD of MS2 coat protein [4]
AGAAAUGCCCAUGGCCACAAGCUUUUUGCUUAUCUUACUACAUGAGGAUCACCCAUGUAACAUGGGCUCCUGACAAU [Enrionera] (puzzle: Sensor v3, turn-off variant 2) | – | 0.0112 µM | – | – | 0.0149 µM | 0.0133 µM
AAAUAAUAGAUAAAAUAACACAUGAGGAUCACCCAUGUGCGAUGUUGAGGGUGAUACAGGCUUUUUGCUCGUCUUAU (Eterna round: R96, puzzle: Sensor v3, turn-off variant 1) | 0.415 µM | – | 0.155 µM | 0.133 µM | – | –
AGCGUGUGAGGAUAUCGAUAUUGGAAGUCUAGGUCUGAGCGCGAGAAGGCACAUGAGGAUCACCCAUGUAAGGG [Teceor] (Eterna round: R97, puzzle: Exclusion 4) | – | – | 0.516 µM | 0.375 µM | – | –
UAGAAGGUAGGAUAUACGAAUAAAUAGGGUAGAAUAAUAACACAUGAGGAUCACCCAUGUAGAAGGACCAAGAU [Mat - Exclusion 2 - Mod of my Tesla design - D30] (puzzle: Exclusion 2) | – | 0.0207 µM | – | – | 0.0429 µM | 0.0207 µM
UGUUGUCGCGCAGGAUAUGAGGAUCACCCAUAUAAGGAUAUCGAAAGAGAAGUUCUGAGGAUCACCCAGAAGGGCGGGACAACU [pwkr exNG2 2xF5 2xFMN.32] (Eterna round: R96, puzzle: Exclusion NG 2) | 0.0526 µM | – | 0.389 µM | 0.0585 µM | – | –
UGGUGUGAAGGAUAUACAUGAGGAUCACCCAUGUAUGUGGUGUGUGUUGAGGUGGAGGGUAGAAGGUCAGGUGG [JR_Exclusion3_Sub014] (puzzle: Exclusion 3) | – | 0.0359 µM | – | – | – | –
GUCAUGUUAGGAUAUGAGCGGCGACUUAGAAUGUUUGCUACUUAGAAGGAACAUGAGGAUCACCCAUGUUCUAU [EX4 C.14] (Eterna round: R97, puzzle: Exclusion 4) | – | – | 0.0202 µM | 0.0172 µM | – | –
GGUGGACAUGAGGAUCACCCAUGUGAGGAUAUCGGCCGGUUCGCGGUGGCUGGCGUCUCGAGAAGGCACAUAGU [Exclusion 1 V72] (puzzle: Exclusion 1) | – | 0.0864 µM | – | – | – | –
AGCAGACGAGGAUAUAGAUUUAAGUACAUGAGGAUCACCCAUGUACAUAUGUAUUUAGAUUUAGAAGGCGUCUGCU [E5/16-A1] (Eterna round: R97, puzzle: Exclusion 5) | – | – | 0.0277 µM | 0.0286 µM | – | –
GGAUAUAGGCGAGGAUAUACGCACCACUAACGAGUAGAAGGCGCACAUGAGGAUCACCCAUGUGAGUUCUCAAUAUGAUACACG [Prohibition 70 - Jieux - Exclusion NG 1] (Eterna round: R96, puzzle: Exclusion NG 1) | 0.0141 µM | – | 0.0149 µM | 0.0186 µM | – | –
CGAUGUGGAGUGAGGAUAUCGUGUUCGAAAGAACGUGAGAAGGCACAUGAGGAUCACCCAUGUGAUUCAUGUCG [Omei Ex4B A7] (Eterna round: R97, puzzle: Brourd's mod of Exclusion 4) | – | – | 0.0409 µM | 0.0262 µM | – | –
AGGUGUGAAGGAUAUAGCGUGGUCGACAUGAGGAUCACCCAUGUGAGAUGGUCGCCGGGUCUAGAAGGUUAGCUAA [Eternabot (L1) Solution 97] (Eterna round: R97, puzzle: Exclusion 5) | – | – | 0.0825 µM | 0.0972 µM | – | –
AGUAACUAUCACGAAAGUGAUAGUUACACAAGCAGUGAUACAUGAGGAUCACCCAUGUCCUCAUUUGCUCGUCUUAU [Sensor 3 - 28] (Eterna round: R96, puzzle: Sensor v3, turn-off variant 2) | 0.472 µM | – | 0.0874 µM | 0.0919 µM | – | –
AACAGUCUAGAGGAUAUGUUGGAUUAAUAUCUGGCAGAAGGCUGGACAUGAGGAUCACCCAUGUAAAUACUACC [Omei Ex6 A14] (Eterna round: R97, puzzle: Exclusion 6) | – | – | 0.0987 µM | 0.0344 µM | – | –
CGUGUACGAGGAUAUAGAUUAGGUGACAUGAGGAUCACCCAUGUGAUCAAUCUAUUUGGUUUAGAAGGUGUACAUG [JR_Ex5_Sub052] (Eterna round: R97, puzzle: Exclusion 5) | – | – | 0.015 µM | 0.014 µM | – | –
GCUGAUCGGCUAGGAUAUACAUUGAUCCUAGGAGGCUAAGCCUCAAAGACAUGAGGAUCACCCAUGUAGAAGGAGCAGCAGUAA [Armaonve] (Eterna round: R96, puzzle: Exclusion NG 2) | 0.0233 µM | – | 0.103 µM | 0.0394 µM | – | –
AUCAGCUCGUCAGGAUAUACAUCACUGCUUCGGCAGUGUAUUAAGAUCACAUGAGGAUCACCCAUGUAGAAGGGACGAGCUGAU [ENG2/2-B3] (Eterna round: R96, puzzle: Exclusion NG 2) | 0.0182 µM | – | 0.342 µM | 0.0253 µM | – | –
